Holding throughout (test): scFv on yeast, soluble CXCL-SA; flow cytometry
On the technique in general: Flow cytometry measures light scatter and fluorescence of single cells or particles in a stream.

For assay [1], the target named is T1, ^NhCXCL1-SA^C (Groα/hCXCL1 35-107 fused to mouse serum albumin) (human; mouse, UniProt P09341 35-107; P07724 25-608).
T1 construct: soluble form; also called Groa
The procedure: (§1) In brief, DNA plasmids encoding single protein binder clones were transformed into genetically modified Saccharomyces cerevisiae yeast cells (EBY100 strain) using Frozen-EZ Yeast Transformation II Kit (Zymo Research) and plated on selective SD-CAA solid agar media. Individual colonies were inoculated in 5 mL SD-SCAA cultures, grown to mid-log phase (0D600=2-5) in SD-CAA media at 30° C. with shacking (250 rpm). Cells were induced in galactose-containing SG-CAA media for 20 hours at 20° C. with shacking (250 rpm) as previously described (Angelini, A. et al. Protein Engineering and Selection Using Yeast Surface Display. Methods Mol Biol 1319, 3-36 (2015)). The binding assays were conducted in 96-well plates (Corning) containing 1×10⁴ induced cells per well. […] Yeast cells displaying protein binders were incubated with varying concentration of soluble CXC chemokine fusions (^NCXCL-SA^S) bearing the His6 tag and the primary chicken anti-c-myc epitope tag (1:1000) antibody (Gallus Immunotech) overnight at 4° C. with shaking (150 rpm). […] After primary incubation, cells were pelleted (2500× g for 5 min at 4° C.) and washed twice with 200 μL ice-cold PBSA buffer. Secondary labeling was performed with goat anti-chicken and mouse anti-His6 epitope tag antibodies conjugated to Alexa Fluor dyes at recommended dilutions.

For assay [2], the target named is T2, ^NmCXCL1-SA^C (KC/mCXCL1 25-96 fused to mouse serum albumin) (mouse, UniProt P12850 25-96; P07724 25-608).
T2 construct: soluble form
The procedure: as §1

Assay [3] deals with T3, ^NhCXCL3-SA^C (Groγ/hCXCL3 35-107 fused to mouse serum albumin) (human; mouse, UniProt P19876 35-107; P07724 25-608).
T3 construct: soluble form
The procedure:
as §1

Assay [4] concerns the target T4, ^NhCXCL2-SA^C (Groβ/hCXCL2 35-107 fused to mouse serum albumin) (human; mouse, UniProt P19875 35-107; P07724 25-608).
T4 construct: soluble form
The procedure:
as §1

The target in assay [5] is T1, ^NhCXCL1-SA^C (Groα/hCXCL1 35-107 fused …). The procedure:
as §1
The source holds these as a separate data set.

For assay [6], the target named is T2, ^NmCXCL1-SA^C (KC/mCXCL1 25-96 fused to …). The procedure: as §1
This is another data set of the same source.

In assay [7] the target is T5, ^NmCXCL5-SA^C (LIX/mCXCL5 48-118 fused to mouse serum albumin) (mouse, UniProt P50228 48-118; P07724 25-608).
T5 construct: soluble form
The procedure:
as §1

The target in assay [8] is T6, ^NmCXCL2-SA^C (MIP-2/mCXCL2 28-100 fused to mouse serum albumin) (mouse, UniProt P10889 28-100; P07724 25-608).
T6 construct: soluble form
The procedure:
as §1

Assay [9] addresses T7, ^NhCXCL8-SA^C (IL-8/hCXCL8 28-99 fused to mouse serum albumin) (human; mouse, UniProt P10145 28-99; P07724 25-608).
T7 construct: soluble form
The procedure: as §1

In assay [10] the target is T8, ^NhCXCL5-SA^C (ENA-78/hCXCL5 44-114 fused to mouse serum albumin) (human; mouse, UniProt P42830 44-114; P07724 25-608).
T8 construct: soluble form
The procedure: as §1

In assay [11] the target is T5, ^NmCXCL5-SA^C (LIX/mCXCL5 48-118 fused …). The procedure: as §1
This is another data set of the same source.

Assay [12] addresses T6, ^NmCXCL2-SA^C (MIP-2/mCXCL2 28-100 …). The procedure:
as §1
The source holds these as a separate data set.

The target in assay [13] is T9, ^NmCXCL10-SA^C (Ip-10/mCXCL10 22-98 fused to mouse serum albumin) (mouse, UniProt P17515 22-98; P07724 25-608).
T9 construct: soluble form
The procedure: as §1

The target of assay [14] is T10, ^NhCXCL4-SA^C (PF-4/hCXCL4 32-101 fused to mouse serum albumin) (human; mouse, UniProt P02776 32-101; P07724 25-608).
T10 construct: soluble form
The procedure: as §1

Assay [15] concerns the target T7, ^NhCXCL8-SA^C (IL-8/hCXCL8 28-99 fused …). The procedure: as §1
The source holds these as a separate data set.

The target in assay [16] is T11, ^NmCXCL3-SA^C (DCIP-1/mCXCL3 28-100 fused to mouse serum albumin) (mouse, UniProt Q6W5C0 28-100; P07724 25-608).
T11 construct: soluble form
The procedure:
as §1

The target of assay [17] is T12, ^NhCXCL6-SA^C (GCP-2/hCXCL6 43-114 fused to mouse serum albumin) (human; mouse, UniProt P80162 43-114; P07724 25-608).
T12 construct: soluble form
The procedure: as §1

Assay [18] deals with T8, ^NhCXCL5-SA^C (ENA-78/hCXCL5 44-114 …). The procedure: as §1
This is another data set of the same source.

Assay [19] addresses these chemokines (the six ELR+ CXC chemokines recognized by CK138).
Assay [20] has as its target T13, ^NmCXCL4-SA^C (Pf-4/mCXCL4 30-105 fused to mouse serum albumin) (mouse, UniProt Q9Z126 30-105; P07724 25-608).
T13 construct: soluble form
The procedure:
as §1

Assay [21] concerns the target T14, ^NhCXCL10-SA^C (IP-10/hCXCL10 22-98 fused to mouse serum albumin) (human; mouse, UniProt P02778 22-98; P07724 25-608).
T14 construct: soluble form
The procedure: as §1

Assay [22] addresses T15, ^NmCXCL11-SA^C (I-Tac/mCXCL11 22-100 fused to mouse serum albumin) (mouse, UniProt Q9JHH5 22-100; P07724 25-608).
T15 construct: soluble form
The procedure: as §1

The target in assay [23] is T16, ^NhCXCL11-SA^C (I-TAC/hCXCL11 22-94 fused to mouse serum albumin) (human; mouse, UniProt O14625 22-94; P07724 25-608).
T16 construct: soluble form
The procedure:
as §1

The target of assay [24] is T17, ^NmCXCL7-SA^C (Nap-2/mCXCL7 48-113 fused to mouse serum albumin) (mouse).
T17 construct: soluble form
T17 chain: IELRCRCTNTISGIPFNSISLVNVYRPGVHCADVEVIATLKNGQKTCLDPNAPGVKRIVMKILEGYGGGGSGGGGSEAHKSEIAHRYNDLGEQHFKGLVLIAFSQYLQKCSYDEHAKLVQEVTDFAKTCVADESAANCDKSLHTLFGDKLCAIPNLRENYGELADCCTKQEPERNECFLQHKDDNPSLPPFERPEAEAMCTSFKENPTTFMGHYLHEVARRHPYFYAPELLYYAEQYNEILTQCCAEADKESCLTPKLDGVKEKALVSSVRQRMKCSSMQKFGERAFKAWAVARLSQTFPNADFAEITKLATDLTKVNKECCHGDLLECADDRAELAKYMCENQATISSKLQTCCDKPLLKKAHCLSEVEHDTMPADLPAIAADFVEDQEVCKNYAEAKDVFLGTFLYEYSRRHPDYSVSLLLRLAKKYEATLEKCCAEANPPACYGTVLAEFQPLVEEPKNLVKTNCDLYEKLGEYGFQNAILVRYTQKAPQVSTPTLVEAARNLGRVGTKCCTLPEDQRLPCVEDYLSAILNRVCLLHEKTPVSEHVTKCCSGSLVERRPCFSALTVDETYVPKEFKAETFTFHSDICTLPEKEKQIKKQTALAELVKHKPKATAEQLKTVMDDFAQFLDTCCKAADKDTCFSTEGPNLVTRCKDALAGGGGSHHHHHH
The procedure:
as §1

The target of the next assay is five targets (of CK157).

Three molecules from patent publication US20210246199A1 (MIT, published 2021) can be followed below.

Read-outs that look alike come from different tables or passages of the source.

B1: CK129 (scFv)
scFv: DIQMTQSPSPLSASVGDRVTITCRASQYGGYVAWYQQKPGKAPKLLIYGASLLYSGVPSRFSGGRSGTDFTLTISSLQPEDFATYYCQRGHALITFGQGTKVEIEGTTAASGSSGGSSSGAEVQLVESGGGLVQPGGSLRLSCAASGFNISSYGSMHWVRQAPGKGLEWVASIYPYSSSTYYADSVKGRFTISADTSKNTAYLQMNSLRAEDTAVYYCARGYGPWYAYSYFALDYWGQGTLVTVSS
notes: CK4 lineage
As to B1, the Kd – broadly, the concentration at which binding is half-saturated – in assay [1] was 0.79 nM; in assay [2] it was 0.93 nM; in [3], 5.7 nM; in [4], 13.9 nM; in [5], 1 nM; in [6] it was 1.1 nM. For the same molecule, the “fold increase in affinity (against the parental CK4 clone)” value in assay [1] stood at 50 fold; in assay [2], 800 fold.

B2: CK138 (scFv)
scFv: AIQMTRSPSSLSASVGDRVTITCRASQYHDGSAAWYQQKPGKAPKLLIYGASYLYSGVPSRFSGSRSGTDFTLTISSLQPEDFATYYCQQSSYSLITFGQGTKVEIKGTTAASGSSGGSSSGAEVQLVESDGGLVQPGGSLRLSCAASGFNLSYYGMHWVRQAPGKGLEWVAYIASYPGYTSYADSVKGRFTISADTSKNTAYLQMNSLRAEDTAVYYCARSGYSYSPYYSWFSAGMNYWGQGALVTVSS
notes: CK1 lineage
Regarding B2, the Kd in assay [7] came to 193 nM; in assay [8] it was 36.2 nM; in [9], 7.4 nM; in assay [1], 61.9 nM; in assay [10], 5.8 nM; in [2], 34.8 nM. Further, the dissociation constant (Kd) stood at 176 nM in assay [11]; 29.1 nM in assay [12]; 500 nM in assay [13]; 167 nM in [14]; 6.9 nM in [15]; 349 nM in [3]. The Kd in assay [4] came to 267 nM; in assay [16], 10.9 nM; in assay [17] it was 153 nM; in assay [5], 41.5 nM; in [18] it was 5.8 nM; in assay [6] it was 35.7 nM. The fold improvement in affinity relative to the parental CK1 in assay [19] lay in the range of 30 to 340 fold.

B3: CK157 (scFv)
scFv: DIQMTQSPSSLSASVGDRVTITCRASQSYGGVAWYQQKPGKAPKLLIYSASYLYSGVPSRFSGSRSGTDFTLTISSLQPEDFATYYCQQPSHLITFGQGTEVEIKGTTAASGSSGGSSSGAEVQLVESGGGLVQPGGSLRLSCAASGSNPYYYGGTHWVRQAPGEELEWVASIGSYPGYTDYADSVKGRFTISADTSKNTAYLQMNSLRAEDTAVYYCARHYYWYDATDYWGQGTLVTVSS
notes: CK2 lineage
Turning to B3, the dissociation constant Kd in assay [7] is 57.1 nM; in assay [8], 18.2 nM; in assay [1], 36.2 nM; in assay [10] it was 16.9 nM; in assay [2], 20.6 nM; in [20], 17.1 nM. Besides, the equilibrium dissociation constant (Kd) in assay [21] was 45.5 nM; in assay [11] it was 96.9 nM; in assay [22], 124 nM; in [12] it was 19.9 nM; in assay [13], 44.4 nM; in assay [14], 112 nM. The Kd in assay [23] was determined as 131 nM; in [3] it was 53.9 nM; in assay [4], 57.9 nM; in [16] it was 17.4 nM; in assay [17], 46.6 nM; in [5], 61.1 nM. In addition, the dissociation constant Kd in assay [18] turned out to be 26.3 nM; in assay [6], 24.3 nM; in [24] it was 13.6 nM. For the same molecule, the fold improvement in affinity compared to the initial CK2 with five targets (of CK157) fell in the range of 20 to 55 fold.
